From patent publication US20250186620A1 (DUKE UNIVERSITY, published 2025)

B2: Wild-type Connexin35 (Cx35) of Morone americana (other)
chain: MGEWTILERLLEAAVQQHSTMIGRILLTVVVIFRILIVAIVGETVYDDEQTMFVCNTLQPGCNQACYDKAFPISHIRYWVFQIIMVCTPSLCFITYSVHQSAKQKERRYSTVYLTLDKDQDSLKRDESKKIKNTIVNGVLQNTENSTKEAEPDCLEVKEIPNSAMRTTKSKMRRQEGISRFYIIQVVFRNALEIGFLVGQYFLYGFNVPSVYECDRYPCIKDVECYVSRPTEKTVFLVFMFAVSGFCVVLNLAELNHLGWRKIKTAVRGVQARRKSIYEIRNKDLPRMSVPNFGRTQSSDSAYV
notes: Connexin hemichannel (hexamer) expressed in HEK 293FT cells; In C. elegans it was expressed as GFP or mCherry fusion; also called Cx35WT; not shown: C-terminal fluorescent protein fusion (mEmerald or RFP670 in FETCH)
B5: Cx35K221E (designer connexin Cx35M1, Morone americana Cx35 with K221E) (other)
chain: MGEWTILERLLEAAVQQHSTMIGRILLTVVVIFRILIVAIVGETVYDDEQTMFVCNTLQPGCNQACYDKAFPISHIRYWVFQIIMVCTPSLCFITYSVHQSAKQKERRYSTVYLTLDKDQDSLKRDESKKIKNTIVNGVLQNTENSTKEAEPDCLEVKEIPNSAMRTTKSKMRRQEGISRFYIIQVVFRNALEIGFLVGQYFLYGFNVPSVYECDRYPCIEDVECYVSRPTEKTVFLVFMFAVSGFCVVLNLAELNHLGWRKIKTAVRGVQARRKSIYEIRNKDLPRMSVPNFGRTQSSDSAYV
notes: Rationally designed hemichannel; In C. elegans expressed as GFP or mCherry fusion; in mice from AAV9 as mApple or mEmerald fusion; not shown: C-terminal fluorescent protein fusion (mEmerald or RFP670 in FETCH)

Key:
[1] = molecular target: Cx34.7E214K/E223K/E225K (Morone americana Cx34.7 triple mutant) (Morone americana); assay: FETCH (flow cytometry, % dual-labelled HEK 293FT cells), homotypic
[2] = molecular target: T1, human connexin36 (Cx36) (human, UniProt Q9UKL4 1-321); assay: FETCH (flow cytometry, % dual-labelled HEK 293FT cells), heterotypic
T1 construct: whole, on cells; Hemichannel expressed in HEK 293FT cells for FETCH; also called GJD2; not shown: C-terminal fluorescent protein fusion (mEmerald or RFP670 in FETCH)
T1 sequence (looked up): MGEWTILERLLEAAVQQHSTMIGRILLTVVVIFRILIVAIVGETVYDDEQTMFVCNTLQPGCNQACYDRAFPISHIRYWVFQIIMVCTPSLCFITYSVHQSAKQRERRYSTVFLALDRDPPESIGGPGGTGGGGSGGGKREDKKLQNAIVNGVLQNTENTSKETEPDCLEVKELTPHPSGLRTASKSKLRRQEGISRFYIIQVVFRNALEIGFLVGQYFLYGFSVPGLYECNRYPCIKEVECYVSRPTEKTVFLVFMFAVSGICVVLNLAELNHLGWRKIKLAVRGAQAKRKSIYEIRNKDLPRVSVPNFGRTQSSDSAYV
Method: (§1) Complete FETCH methodology is outlined in Ransey et. al. 2021 (Ransey E, et al. (2021) BioRxiv). Briefly, replica multi-well plates with HEK 293FT cells were transfected with either of the two connexin proteins being evaluated for docking. Following a transfection incubation period, experimental counterparts were combined, replated, and further incubated for about 20 hr to about 24 hrs, allowing cells to make contacts and potentially generate connexosomes. Co-plated samples were trypsinized, fixed in suspension and analyzed via flow cytometry. Flow cytometry data was processed with two selection gates prior to their fluorescence evaluation. First, putative HEK cells were identified by evaluating sample forward vs. side scatter area. Next, single cells were identified as the putative cells that maintained a linear correlation of forward scatter height to forward scatter area. Finally, the dual fluorescence (mEmerald vs. RFP670) profiles of each sample was generated, and the FETCH score was defined as the proportion of dual-labeled fluorescent cells that develop in a co-plated sample.

[3] = molecular target: T2, human connexin43 (Cx43) (human, UniProt P17302 2-382); assay: FETCH (flow cytometry, % dual-labelled HEK 293FT cells), heterotypic, n=6
T2 construct: whole, on cells; Hemichannel expressed in HEK 293FT cells for FETCH; also called GJA1; not shown: C-terminal fluorescent protein fusion (mEmerald or RFP670 in FETCH)
T2 sequence (P17302 2-382): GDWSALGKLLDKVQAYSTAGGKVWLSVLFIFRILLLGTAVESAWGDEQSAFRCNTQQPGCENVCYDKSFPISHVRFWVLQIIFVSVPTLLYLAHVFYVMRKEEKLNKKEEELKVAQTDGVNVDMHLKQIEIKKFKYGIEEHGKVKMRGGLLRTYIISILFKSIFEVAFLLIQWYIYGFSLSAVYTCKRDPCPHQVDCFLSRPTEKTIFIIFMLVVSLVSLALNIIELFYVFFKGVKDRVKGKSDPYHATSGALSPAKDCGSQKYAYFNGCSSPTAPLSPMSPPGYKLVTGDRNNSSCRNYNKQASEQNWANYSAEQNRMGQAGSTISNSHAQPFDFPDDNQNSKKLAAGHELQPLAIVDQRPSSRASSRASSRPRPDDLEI
Method: as §1

[4] = molecular target: T1, human connexin36 (Cx36); assay: heterotypic FETCH
Method: as §1

[5] = molecular target: T2, human connexin43 (Cx43); assay: heterotypic FETCH
Method: as §1

[6] = molecular target: the molecule itself; assay: homotypic FETCH screen
Method: as §1
For screening analysis, five FETCH replicates were obtained for each condition (mutation). These scores were benchmarked against scores for Cx36 and Cx45 (FETCH=1.2±0.1%, n=54 replicates). To quantitatively determine whether a connexin pair docked, FETCH scores were determined for the dual fluorescence of cells under conditions where docking was not anticipated. These conditions included pairs of connexins previously established to not show docking: (i) Cx36 and Cx45 (FETCH=0.7±0.0%, n=59 replicates), (ii) homotypic Cx23 (FETCH=0.9±0.4%, n=6 previously collected replicates (Ransey E, et al. (2021) BioRxiv), and (iii) Cx36 and Cx43 (FETCH=1.2±0.2%, n=10 previously collected replicates (Ransey E, et al. (2021) BioRxiv), and under conditions for which cells were transfected with cytoplasmic fluorophores rather than tagged connexins (FETCH=4.4±0.6%, n=17 previously collected replicates (Ransey E, et al. (2021) BioRxiv).

[7] = molecular target: the molecule itself; assay: FETCH (flow cytometry, % dual-labelled HEK 293FT cells), homotypic
Method: as §1

[8] = molecular target: the molecule itself; assay: homotypic FETCH
Method: as §1

[9] = molecular target: Cx34.7E214K/E223K/E225K (Morone americana Cx34.7 triple mutant) (Morone americana); assay: FETCH (flow cytometry, % dual-labelled HEK 293FT cells), heterotypic
[10] = molecular target: T2, human connexin43 (Cx43); assay: as above
Method: as §1

[11] = molecular target: B2; assay: heterotypic FETCH
Method: as §1

[12] = molecular target: B5; assay: FETCH (flow cytometry, % dual-labelled HEK 293FT cells), heterotypic
Method: as §1

B1: Cx34.7E214K/E223K/E225K (Morone americana Cx34.7 triple mutant) (protein, not shown: large carriers)
chain: MGEWTILERLLEAAVQQHSTMIGRILLTVVVIFRILIVAIVGETVYEDEQAMFICNTLQPGCNQACYDKAFPISHIRYWVFQIILVCTPSLCFITYSVHQSAKQKDRRYSFLYPIMERDYGGRDGARKLRNINGILVQHGGDGGGGKEEPDCLEVKEIPNAPRGLTHGKSSKVRRQEGISRFYIIQVVFRNALEIGFLAGQYFLYGFSVPGIFKCDRYPCLKKVKCYVSRPTEKTVFLVFMFAVSGICVVLNLAELNHLGWRKIKAAIRGVQARRKSICEIRKKDMAHLSQPPNLGRTQSSESAYV
FETCH score [1]: 0.2%

B2
FETCH score [2]: 18%

B3: Cx35E224K (Morone americana Cx35 mutant E224K) (other)
chain: MGEWTILERLLEAAVQQHSTMIGRILLTVVVIFRILIVAIVGETVYDDEQTMFVCNTLQPGCNQACYDKAFPISHIRYWVFQIIMVCTPSLCFITYSVHQSAKQKERRYSTVYLTLDKDQDSLKRDESKKIKNTIVNGVLQNTENSTKEAEPDCLEVKEIPNSAMRTTKSKMRRQEGISRFYIIQVVFRNALEIGFLVGQYFLYGFNVPSVYECDRYPCIKDVKCYVSRPTEKTVFLVFMFAVSGFCVVLNLAELNHLGWRKIKTAVRGVQARRKSIYEIRNKDLPRMSVPNFGRTQSSDSAYV
notes: Extracellular loop mutant of the screening library; not shown: C-terminal fluorescent protein fusion (mEmerald or RFP670 in FETCH)
FETCH score [3]: 0.5% | binding result [4]: no binding | binding result [5]: no binding | FETCH score [2]: 0.8% | binding result [6]: no binding

B4: Cx35E224R (Morone americana Cx35 mutant E224R) (other)
chain: MGEWTILERLLEAAVQQHSTMIGRILLTVVVIFRILIVAIVGETVYDDEQTMFVCNTLQPGCNQACYDKAFPISHIRYWVFQIIMVCTPSLCFITYSVHQSAKQKERRYSTVYLTLDKDQDSLKRDESKKIKNTIVNGVLQNTENSTKEAEPDCLEVKEIPNSAMRTTKSKMRRQEGISRFYIIQVVFRNALEIGFLVGQYFLYGFNVPSVYECDRYPCIKDVRCYVSRPTEKTVFLVFMFAVSGFCVVLNLAELNHLGWRKIKTAVRGVQARRKSIYEIRNKDLPRMSVPNFGRTQSSDSAYV
notes: as for B3
FETCH score [3]: 0.5% | binding result [4]: no binding | binding result [5]: no binding | FETCH score [2]: 0.6% | binding result [6]: no binding

B5
FETCH score [7]: 1.2% | binding result [4]: no binding | binding result [5]: no binding | binding result [8]: no binding | FETCH score [9]: 1.2% | FETCH score [2]: 1.5% | FETCH score [10]: 1.7%

B6: Wild-type Connexin34.7 (Cx34.7) of Morone americana (other)
chain: MGEWTILERLLEAAVQQHSTMIGRILLTVVVIFRILIVAIVGETVYEDEQAMFICNTLQPGCNQACYDKAFPISHIRYWVFQIILVCTPSLCFITYSVHQSAKQKDRRYSFLYPIMERDYGGRDGARKLRNINGILVQHGGDGGGGKEEPDCLEVKEIPNAPRGLTHGKSSKVRRQEGISRFYIIQVVFRNALEIGFLAGQYFLYGFSVPGIFECDRYPCLKEVECYVSRPTEKTVFLVFMFAVSGICVVLNLAELNHLGWRKIKAAIRGVQARRKSICEIRKKDMAHLSQPPNLGRTQSSESAYV
notes: In C. elegans it was expressed as GFP or mCherry fusion; also called Cx34.7WT; not shown: C-terminal fluorescent protein fusion (mEmerald or RFP670 in FETCH)
binding result [11]: binds | FETCH score [2]: 11.9%

B7: Cx35E224H (Morone americana Cx35 mutant E224H) (other)
chain: MGEWTILERLLEAAVQQHSTMIGRILLTVVVIFRILIVAIVGETVYDDEQTMFVCNTLQPGCNQACYDKAFPISHIRYWVFQIIMVCTPSLCFITYSVHQSAKQKERRYSTVYLTLDKDQDSLKRDESKKIKNTIVNGVLQNTENSTKEAEPDCLEVKEIPNSAMRTTKSKMRRQEGISRFYIIQVVFRNALEIGFLVGQYFLYGFNVPSVYECDRYPCIKDVHCYVSRPTEKTVFLVFMFAVSGFCVVLNLAELNHLGWRKIKTAVRGVQARRKSIYEIRNKDLPRMSVPNFGRTQSSDSAYV
notes: as for B3
FETCH score [3]: 0.4% | binding result [5]: no binding | FETCH score [2]: 5.9% | binding result [6]: no binding

B8: Cx34.7E214K/E223K (designer connexin Cx34.7M1, Morone americana Cx34.7 with E214K and E223K) (other)
chain: MGEWTILERLLEAAVQQHSTMIGRILLTVVVIFRILIVAIVGETVYEDEQAMFICNTLQPGCNQACYDKAFPISHIRYWVFQIILVCTPSLCFITYSVHQSAKQKDRRYSFLYPIMERDYGGRDGARKLRNINGILVQHGGDGGGGKEEPDCLEVKEIPNAPRGLTHGKSSKVRRQEGISRFYIIQVVFRNALEIGFLAGQYFLYGFSVPGIFKCDRYPCLKKVECYVSRPTEKTVFLVFMFAVSGICVVLNLAELNHLGWRKIKAAIRGVQARRKSICEIRKKDMAHLSQPPNLGRTQSSESAYV
notes: Rationally designed hemichannel; In C. elegans expressed as GFP or mCherry fusion; in mice from AAV9 as mEmerald or mApple fusion; not shown: C-terminal fluorescent protein fusion (mEmerald or RFP670 in FETCH)
FETCH score [7]: 1.1% | binding result [4]: no binding | binding result [5]: no binding | binding result [8]: no binding | FETCH score [2]: 1% | FETCH score [10]: 0.9% | FETCH score [12]: 35.7%
